Measured values reported in patent US20200340031A1 (YALE UNIVERSITY, published 2020).
Changes are numbered by the printed parent chain. One block for each binder: values may come before it.

Columns and labels:
[1] = target: T1, Recombinant human renalase-1 expressed and secreted by pCDNA3-renalase-1-transfected 293T cells (human, UniProt Q5VYX0 18-342, limits assumed); test: Western blot; lane 293 s/n taken as supernatant of renalase-expressing 293 cells, the text does not explain the lane
T1 construct: whole renalase-1 entry named; Present in cell culture supernatant; also called mammalian-expressed recombinant human renalase
T1 sequence (Q5VYX0 18-342 limits assumed): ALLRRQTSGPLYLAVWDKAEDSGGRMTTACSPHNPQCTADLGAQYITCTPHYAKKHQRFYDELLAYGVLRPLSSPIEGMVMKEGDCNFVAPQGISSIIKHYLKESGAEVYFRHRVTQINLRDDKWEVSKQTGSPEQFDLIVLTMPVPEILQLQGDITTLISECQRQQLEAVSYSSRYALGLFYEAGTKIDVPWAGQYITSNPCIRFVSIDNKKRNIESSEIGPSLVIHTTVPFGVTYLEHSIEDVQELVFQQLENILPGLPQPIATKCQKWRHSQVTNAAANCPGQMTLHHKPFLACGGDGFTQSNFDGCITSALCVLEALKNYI

[2] = target: T1, Recombinant human renalase-1 expressed …; test: Immunoprecipitation from 293T supernatant with Protein G Sepharose, Western blot with biotinylated Ren 28-4
Description: All samples were incubated for 2 hours at 4° C. on a shaker. Immunoprecipitates were then washed 3 times with 1 mL RIPA buffer. 50 ul SDS-PAGE sample buffer (Fermentas) was added directly to Protein G-antibody immunoprecipitates and samples were heated to 95° C. for 5 minutes before running on SDS-PAGE. Actigel-antibody immunoprecipitates were washed a further 2 times in PBS prior to addition of 50 ul 0.1 M Glycine, pH 2.5. Samples were then agitated at room temperature for 10 minutes. Eluted proteins were recovered after centrifugation and resolved by SDS-PAGE. In all experiments 20 μL immunoprecipitate input material and 0.5 ng recombinant renalase positive control (RV11) were also loaded onto the gel.
In the example where a Protein G-mediated immunoprecipitation was used the western primary antibody was biotinylated-Ren 28-4 followed with a neutravidin-HRP secondary probe. In all cases where no immunoprecipitating antibody was added, no renalase was detected on the Western blot. All of the 1D and 1F antibodies (monoclonal and polyclonal) were able to immunoprecipitate bacterially- or mammalian-expressed recombinant human renalase.

[3] = target: T2, RPC1 reference standard peptide; test: standard curve in the sandwich ELISA with m42-RNLS capture and electro-chemiluminescence detection
T2 construct: Synthetic: m42 peptide antigen linked to the m28 peptide antigen
T2 sequence (peptide, as listed by the source): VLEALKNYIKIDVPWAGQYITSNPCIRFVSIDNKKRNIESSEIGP
Description: (§1) In this example, human plasma samples were pretreated as follows: To 40 μL of plasma, 20 μL of 1N Citric acid was added and the samples were incubated on a shaker for 15 min at RT. The reaction solution was neutralized by adding 40 μL of 1M Na₂HPO₄. The samples were then stored on ice and further diluted with Diluent 100 to obtain readings in linear range. Assay protocol: Renalase levels in plasma was measured using the prototype assay on the Mesoscale platform (Meso Scale diagnostics, Gaithersburg, Md., USA) which employs proprietary electro-chemiluminescence detection methods combined with patterned arrays. Standard 96-well assay plate from Mesoscale Diagnostics were coated with 40 μL of Ren 1F 42-7 (m42-RNLS) capture antibody (2 μg/mL) and incubated for 2 hours on a shaker at room temperature. Following this, 150 μL of 3% Blocker A was added and the plate incubated on a shaker for 1 hour at room temperature. The plate was then washed with 150 μL of PBST (3 times); diluted acid activated samples and calibrator was added and the plate incubated for 2 hrs at RT on a shaker. […] The plate was washed and 2× read buffer was added and the plate imaged on SQ120 (Meso Scale Discovery). The raw data was analyzed using the Discovery Workbench software. […]

[4] = target: T3, RPC2 reference standard peptide; test: as above
T3 construct: Synthetic: m42 peptide antigen linked to the m28 peptide antigen
T3 sequence (peptide, as listed by the source): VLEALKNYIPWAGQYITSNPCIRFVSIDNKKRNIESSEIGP
Description: as §1

B2: anti-1D epitope monoclonal antibody 1D-28-4 (antibody, V domains shown)
VH: QSVEESGGRLVTPGTPLTLTCTVSGFSLSSFAVGWVRQAPGKGLEYIGIISSVGITRYASWAAGRFTISKTSTTVDLKITSPTTEDTATYFCARYGYSGDVNRLDLWGQGTLVTVSS
VL: AQVLTQTASPVSAAVGGTVTINCQASQSVYDNNNLAWYQQKPGQPPKQLIYGASTLASGVSSRFKGSGSGTQFTLTISGVQCDDAATYYCLGEFSCSSADCFAFGGGTEVVVKG
notes: Rabbit monoclonal from hybridoma, purified on Protein A. Used biotinylated in some assays; also called Ren 1D 28-4; Ren1D 28-4
- binding result [1]: binds

B3: anti-1F epitope monoclonal antibody 1F-26-1 (antibody, V domains shown)
VH: QSVKESEGGLFKPTDTLTLTCTVSGFSLSSYGVTWVRQAPGNGLEWIGLIGDRGTTFYASWAKSRSTITRNTNLNTVTLKMTRLTAADTATYFCARGSGYGARIWGPGTLVTVSS
VL: AQVLTQTPSPVSAAVGGTVTINCQSSQSVYKNNYLAWYQQKPGQPPKLLIYETSKLASGVPPRFSGSGSGTQFTLTISSVQCDDAATYYCQGGYSGVDFMAFGGGTEVVVKG
notes: Rabbit monoclonal; Used biotinylated as detection antibody in the sandwich ELISAs; also called Ren 1F 26-1
- binding result [2]: binds

More lines, now with the values ahead:

- binding result [1]: binds
B1: anti-1D epitope monoclonal antibody 1D-37-10 (antibody, V domains shown)
VH: QSVEESGGRLVTPGGSLTLTCTVSGFSLSDYAIIWVRQAPGKGLEYIAIIGSSGDTFYATWAKGRFTISKTSTTVDLKMTSLTAADTATYFCAPRYAGTTDYHDAFDPWGPGTLVTVSS
VL: EVVMTQTPASMEAPMGGTVTIKCQASQNIYNYLSWYQQKPGQPPKLLVYKASTLTSGVPSRFKGSGSGTQFTLTISDLECADAATYYCQINYSIYNHYNIIFGGGTEVVVKG
notes: Rabbit monoclonal; also called Ren 1D 37-10

- binding result [3]: binds
- binding result [4]: binds
- binding result [2]: binds
B4: anti-1F epitope monoclonal antibody 1F-42-7 (antibody, V domains shown)
VH: B3 VH with S29T, S30T, F57Y, A62V, K63N, S64G, S114A
VL: B3 VL with V11M, V15L, S28T, K31N, A36S, A57S
notes: Rabbit monoclonal; also called Ren 1F 42-7; m42-RNLS
